Experimental data published in paper PMC10330345 (Journal of immunology (Baltimore, Md. : 1950), 2023).

B1: BTN2A1 (309–527) wild type (domain or fragment, human, UniProt Q7KYR7 309-527, looked up)
chain: QVKEKLQEELRWRRTFLHAVDVVLDPDTAHPDLFLSEDRRSVRRCPFRHLGESVPDNPERFDSQPCVLGRESFASGKHYWEVEVENVIEWTVGVCRDSVERKGEVLLIPQNGFWTLEMHKGQYRAVSSPDRILPLKESLCRVGVFLDYEAGDVSFYNMRDRSHIYTCPRSAFSVPVRPFFRLGCEDSPIFICPALTGANGVTVPEEGLTLHRVGTHQSL
B2: BTN2A1 (271–527) wild type (domain or fragment, human, UniProt Q7KYR7 271-527, looked up)
chain: KLQKEKKILSGEKEFERETREIALKELEKERVQKEEELQVKEKLQEELRWRRTFLHAVDVVLDPDTAHPDLFLSEDRRSVRRCPFRHLGESVPDNPERFDSQPCVLGRESFASGKHYWEVEVENVIEWTVGVCRDSVERKGEVLLIPQNGFWTLEMHKGQYRAVSSPDRILPLKESLCRVGVFLDYEAGDVSFYNMRDRSHIYTCPRSAFSVPVRPFFRLGCEDSPIFICPALTGANGVTVPEEGLTLHRVGTHQSL
B3: BTN2A1 (271–527) W320A (domain or fragment, human, UniProt Q7KYR7 271-527, looked up)
chain: KLQKEKKILSGEKEFERETREIALKELEKERVQKEEELQVKEKLQEELRARRTFLHAVDVVLDPDTAHPDLFLSEDRRSVRRCPFRHLGESVPDNPERFDSQPCVLGRESFASGKHYWEVEVENVIEWTVGVCRDSVERKGEVLLIPQNGFWTLEMHKGQYRAVSSPDRILPLKESLCRVGVFLDYEAGDVSFYNMRDRSHIYTCPRSAFSVPVRPFFRLGCEDSPIFICPALTGANGVTVPEEGLTLHRVGTHQSL
B4: BTN2A1 (271–527) L318G (domain or fragment, human, UniProt Q7KYR7 271-527, looked up)
chain: KLQKEKKILSGEKEFERETREIALKELEKERVQKEEELQVKEKLQEEGRWRRTFLHAVDVVLDPDTAHPDLFLSEDRRSVRRCPFRHLGESVPDNPERFDSQPCVLGRESFASGKHYWEVEVENVIEWTVGVCRDSVERKGEVLLIPQNGFWTLEMHKGQYRAVSSPDRILPLKESLCRVGVFLDYEAGDVSFYNMRDRSHIYTCPRSAFSVPVRPFFRLGCEDSPIFICPALTGANGVTVPEEGLTLHRVGTHQSL
B5: BTN2A1 (271–527) L318GW320A (domain or fragment, human, UniProt Q7KYR7 271-527, looked up)
chain: KLQKEKKILSGEKEFERETREIALKELEKERVQKEEELQVKEKLQEEGRARRTFLHAVDVVLDPDTAHPDLFLSEDRRSVRRCPFRHLGESVPDNPERFDSQPCVLGRESFASGKHYWEVEVENVIEWTVGVCRDSVERKGEVLLIPQNGFWTLEMHKGQYRAVSSPDRILPLKESLCRVGVFLDYEAGDVSFYNMRDRSHIYTCPRSAFSVPVRPFFRLGCEDSPIFICPALTGANGVTVPEEGLTLHRVGTHQSL

Target: the molecule itself
Test: SEC

Stoichiometry N, 2:
B1
B2
B3
B4
B5
